According to IntAct's records for PubMed 15983381:

B1: Parkinson disease protein 7 (Homo sapiens), Q99497 (parent)
chain: MASKRALVILAKGAEEMETVIPVDVMRRAGIKVTVAGLAGKDPVQCSRDVVICPDASLEDAKKEGPYDVVVLPGGNLGAQNLSESAAVKEILKEQENRKGLIAAICAGPTALLAHEIGFGSKVTTHPLAKDKMMNGGHYTYSENRVEKDGLILTSRGPGTSFEFALAIVEALNGKEVAAQVKAPLVLKD

Variants of: B1
Conditions: with daxx_human DAXX

Row | Variant | effect of a mutation on the interaction
1 | L166P | decreasing interaction
